Measurements: article PMC8993412

Assays:
[1] = target: SARS-CoV-2 Nsp15 (recombinant) (SARS-CoV-2) (UniProt P0DTD1); assay: ELISA
[2] = target: SARS-CoV-2 Nsp7 (recombinant) (SARS-CoV-2) (UniProt P0DTD1); assay: ELISA

Row | Binder | EC50 [1] [nM] | EC50 [2] [nM]
1 | IgG 16684 (anti-Nsp15) (antibody, V domains shown) VH: EVQLVESGGGLVQPGGSLRLSCAASGFNFSSSSIHWVRQAPGKGLEWVASIYSSYGYTYYADSVKGRFTISADTSKNTAYLQMNSLRAEDTAVYYCARVSYYYPYSWYFYGYYGGLDYWGQGTLVTVSS VL: DIQMTQSPSSLSASVGDRVTITCRASQSVSSAVAWYQQKPGKAPKLLIYSASSLYSGVPSRFSGSRSGTDFTLTISSLQPEDFATYYCQQSSYSLITFGQGTKVEIK | 19 | 
2 | IgG 16658 (anti-Nsp7) (antibody, V domains shown) VH: EVQLVESGGGLVQPGGSLRLSCAASGFNLSYYSIHWVRQAPGKGLEWVASIYPYYSYTYYADSVKGRFTISADTSKNTAYLQMNSLRAEDTAVYYCARVGFDYWGQGTLVTVSS VL: DIQMTQSPSSLSASVGDRVTITCRASQSVSSAVAWYQQKPGKAPKLLIYSASSLYSGVPSRFSGSRSGTDFTLTISSLQPEDFATYYCQQYAGLITFGQGTKVEIK |  | 130
